Test results taken from patent publication US10864285B2, “Methods for the diagnosis and treatment of Sjögren's syndrome” (The U.S.A., as represented by the Secretary, Department of …, priority 2012, dated 2020).

Assays:
[1] = test system: salivary and lacrimal glands of mice; test: Histopathological scoring for lymphocytic infiltrates (focus score); format: in vivo, mouse; settings: 20 weeks post cannulation, vs control mice, statistically significant
Method: Submandibular glands (SMG) were removed for histological analysis from mice at the time of sacrifice, and placed O/N in 10% formalin. After fixation, the tissues were dehydrated in an ethanol series and embedded in paraffin according standard techniques. Sections were cut at 5 μm and subsequently stained with hematoxylin and eosin (H&E). Histopathological scoring was performed using the focus score. A focus is an aggregate of 50 or more mononuclear cells per 4 mm^2. Foci were counted through the whole section, in a total of three sections (50 μm between sections) per SG using a 40× magnification. The results were calculated and expressed as foci per 4 mm^2. The focus scores were assessed blindly by two different examiners and the mean scores were determined.
A hallmark of pSS is lymphocytic infiltration in the […] glands, especially salivary and lacrimal glands. To determine the effect of elevated BMP6 on the local immune environment of the salivary gland, histopathological scoring for lymphocytic infiltrates was performed on both salivary and lacrimal glands 20 weeks post cannulation. […] Furthermore, no changes in circulating autoantibodies to anti-Ro/SSA or anti-La/SSB were detected in the animals expressing BMP6 in the salivary glands compared with control mice (FIGS. 5C and 5D).

[2] = test system: SMG ducts of mice; test: Electrical potential across the duct of the SMG; format: in vivo, mouse; settings: mice transduced with 10^11 particles of AAV5 expressing BMP6, vs GFP control mice
Description: To measure the electrical potential (EP) across the duct of the SMGs, a procedure was developed to measure the EP by cannulating the duct and inserting the electrode in the cannula. The high impedance electrode was attached to an electrometer (model FD223, World Precision Instrument, Sarasota, Fla.). The electrical potential of the duct was read by placing the ground electronic rode on the adjacent tissues to the opening of the ducts.
To measure electrophysiologic parameters associated with Sjögren's syndrome, a measurement circuit 20 (see FIG. 10) was established between a detection electrode 22 placed in a salivary gland duct and a reference electrode 24 placed in electrical contact with adjacent oral mucosa. In this particular example, the electrical potential was measured across the ducts of SMGs. A procedure was developed to measure TEER by cannulating the electrode of a transmeter (model FD223, World Precision Instrument, Sarasota, Fla.) in the ducts of SMGs of mice (FIG. 10). […]
The detecting electrode included a cannula 26 placed on a 1 mL syringe 28, which was a fixed supporter. […] The trans-epithelial potential was read by placing the ground electrode on the tissues adjacent to the opening of the ducts. Background potential was determined by reading the potential when the detecting electronic rode was placed in saline only.

[3] = test system: Caco-2 cells; test: Trans epithelial resistance (TEER) of cell monolayers in transwells; format: cell-based; settings: Caco-2 cells grown in 6 ng/ml BMP6 vs without BMP6
Method: (§1) Trans epithelial electrical resistance (TER) of all cell types was measured using a using a volt/ohm meter (Millicel; Millipore, Mass., USA) in an electrode chamber (EVOV; WPI, FL, USA). Cells were allowed to establish monolayers on 0.4-Am pore size polycarbonate filters in 6-mm Transwell chambers (Costar, Mass., USA).
(§2) Tight junction structures are important in the correct functioning of the salivary glands. […] To determine if BMP6 expression could alter epithelial integrity, monolayers of three well differentiated epithelia (SMEI, Caco-2, and MDCK1 cells) grown in the presence of 6 ng/ml BMP6 in transwells were tested for changes in trans epithelial resistance (TEER) compared with cells grown without BMP6 (FIG. 7A). […] BMP6 expression also changed the electrical potential of the glands as well (FIG. 7A).

[4] = test system: MDCK1 cells; test: as above; format: cell-based; settings: MDCK1 cells grown in 6 ng/ml BMP6 vs without BMP6
Method: as §1, §2

[5] = test system: SMEI cells; test: as above; format: cell-based; settings: SMEI cells grown in 6 ng/ml BMP6 vs without BMP6
Method: as §1, §2

[6] = test system: HSG cells (a human salivary gland cell line); test: Regulated volume decrease (RVD) after hypotonic solution in HSG cells; format: cell-based; settings: 6 ng/ml of BMP6 for 4 days
Method: Regulated volume decrease was measured as described previously (Liu et al., J Biol Chem 281:15485-15495, 2006). Briefly SMGs from mice were removed at the end of the study and prepared as described (Liu et al., J Biol Chem 281:15485-15495, 2006). Cells were then loaded with the fluoroprobe calcein (Molecular Probes, Inc., Eugene, Oreg.) and excited at 490 nm. Emitted fluorescence was measured at 510 nm. In situ calibration of the dye was performed. Origin 7.5 (OriginLab, Northampton, Mass.) was used for data analysis and display. Significant difference between individual groups was tested by using analysis of variance.
Although no increase in a number of immunological factors was detected, it is not possible to rule out the possibility that BMP6 expression is a trigger for expression of another soluble factor and is not directly causing the loss of RVD in isolated salivary gland cells from the treated mice. To test for a direct effect of BMP6 on RVD, HSG cells (a human salivary gland cell line) were treated with 6 ng/ml of BMP6 for 4 days and then assayed for a loss in RVD activity (FIG. 8B). […] To date little is known about the role of BMPs in SS and the present work represents the first association.

B1: BMP6: A member of the TGF-β superfamily of growth factors; added to cultured cells at 6 ng/ml (protein, UniProt P22004 375-513, looked up)
Bone morphogenetic protein 6: SASSRRRQQSRNRSTQSQDVARVSSASDYNSSELKTACRKHELYVSFQDLGWQDWIIAPKGYAANYCDGECSFPLNAHMNATNHAIVQTLVHLMNPEYVPKPCCAPTKLNAISVLYFDDNSNVILKKYRNMVVRACGCH
Increase in focus score in the salivary glands [1]: > 2 fold | Electrical potential in intact salivary glands [2]: increase in electrical potential | Change in TEER [3]: statistically significant increase in TEER | Change in TEER [4]: statistically significant increase in TEER | Change in TEER [5]: statistically significant increase in TEER | RVD activity of HSG cells [6]: loss of volume decrease was detected
